Source: PMC3710971 (Molecular Cell, 2013)

Key:
[1] = target: HDAC1 (full-length, untagged) (UniProt Q13547 1-482); test: crystal structure
crystal structure = target: the molecule itself; test: crystal structure

Chain of HDAC1 (full-length, untagged) (Q13547 whole entry): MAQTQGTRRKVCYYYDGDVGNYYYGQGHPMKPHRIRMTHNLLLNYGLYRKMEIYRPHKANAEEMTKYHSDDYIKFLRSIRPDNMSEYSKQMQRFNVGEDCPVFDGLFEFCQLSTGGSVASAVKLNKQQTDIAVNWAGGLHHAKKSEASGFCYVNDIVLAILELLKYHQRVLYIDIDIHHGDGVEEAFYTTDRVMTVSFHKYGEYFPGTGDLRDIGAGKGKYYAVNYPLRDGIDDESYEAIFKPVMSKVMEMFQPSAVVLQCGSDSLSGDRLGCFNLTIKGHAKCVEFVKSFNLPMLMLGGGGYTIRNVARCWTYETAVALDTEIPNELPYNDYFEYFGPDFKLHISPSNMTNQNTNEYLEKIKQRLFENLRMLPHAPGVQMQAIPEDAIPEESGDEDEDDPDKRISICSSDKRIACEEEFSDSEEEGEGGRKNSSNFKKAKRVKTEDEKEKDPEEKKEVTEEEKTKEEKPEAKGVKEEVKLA

binding result [1]: binds
B1: ELM2-SANT domain of MTA1 (residues 162-335) (domain or fragment, UniProt Q13330 162-335, looked up)
chain: ADKGEIRVGNRYQADITDLLKEGEEDGRDQSRLETQVWEAHNPLTDKQIDQFLVVARSVGTFARALDCSSSVRQPSLHMSAAAASRDITLFHAMDTLHKNIYDISKAISALVPQGGPVLCRDEMEEWSASEANLFEEALEKYGKDFTDIQQDFLPWKSLTSIIEYYYMWKTTDR
binding result (crystal structure): binds
